Laboratory results: paper doi:10.1101/2024.05.29.596243 (bioRxiv, 2024)

Target: the molecule itself
Assay: cryo-electron tomography with subtomogram averaging

B1: H+-ATPase Pma1 (natural protein, UniProt Q6FXU5 1-902, looked up)
chain: MSDVESNNEKPPQDVYEDEEMSEDDDIDALIEELQSHHGMGDDDDSEDEGHHTGSARVVPEEYLQTDPSYGLTSDEVAHRRKKYGLNQMADERESMIVKFVMFFVGPIQFVMEAAAILAAGLSDWVDFGVICGLLMLNACVGFIQEFQAGSIVDELKKTLANVAVVIRDGQLVEVPANEVVPGDILQLEDGTIIPADGRLVTENCFLQVDQSAITGESLAVDKGYGDQTFSSSTVKRGEAFMVVTATGDNTFVGRAAALVNKASGGQGHFTEVLNGIGILLLVLVIVTLLGVWAACFYRTDNIVKILRFTLGITIIGVPVGLPAVVTTTMAVGAAYLAKKQAIVQKLSAIESLAGVEILCSDKTGTLTKNKLSLHEPYTVEGVSADDLMLTACLAASRKKKGLDAIDKAFLKSLINYPKAKDALTKYKVIEFHPFDPVSKKVTAVVESPEGERIVCVKGAPLFVLKTVEEDHPIPEDVHENYENKVAELASRGFRALGVARKRGEGHWEILGVMPCMDPPRDDTAETVNEARRLGLRVKMLTGDAVGIAKETCRQLGLGTNIYNAERLGLGGGGDMPGSELADFVENADGFAEVFPQHKYKVVEILQNRGYLVAMTGDGVNDAPSLKKADTGIAVEGASDAARSAADIVFLAPGLSAIIDALKTSRQIFHRMYSYVVYRIALSLHLELFLGLWIIILNHSLDIELIVFIAIFADVATLAIAYDNAPFSQTPVKWNLPRLWGMSIILGIVLAIGTWICLTTMFLPRGGIIQNFGSIDGVLFLQISLTENWLIFVTRAVGPFWSSIPSWQLAGAVFAVDIIATMFTLFGWFSQNWTDIVTVVKIYIWSIGVFCVLGGFYYIMSESVVFDRLMNGKPLKEEKSTRSVEDFLAAMQRVSTQHEKEN
stoichiometry N: 6
